According to PMC9907809, “Conformational rearrangements in the sensory RcsF/OMP complex mediate signal transduction across the bacterial cell envelope” (PLOS Genetics, 2023):

Target: T1, OmpA ( (endogenous in the host …, UniProt P0A910 22-346))
T1 construct: OmpA, outer membrane protein; source: endogenous, in cells / DDM-solubilized membrane fraction
T1 sequence (looked up): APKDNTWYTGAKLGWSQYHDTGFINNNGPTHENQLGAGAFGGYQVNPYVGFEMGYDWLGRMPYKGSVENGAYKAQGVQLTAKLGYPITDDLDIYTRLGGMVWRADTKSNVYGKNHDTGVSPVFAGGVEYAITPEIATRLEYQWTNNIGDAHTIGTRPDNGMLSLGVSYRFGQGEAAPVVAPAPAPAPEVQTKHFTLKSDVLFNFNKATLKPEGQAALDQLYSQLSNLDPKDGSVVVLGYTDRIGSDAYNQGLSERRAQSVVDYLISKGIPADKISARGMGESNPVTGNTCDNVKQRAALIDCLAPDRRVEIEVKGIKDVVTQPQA
Assay: cross-linking; in vivo formaldehyde crosslinking; OM version of RcsF variants with endogenous OmpA (and BamA); immunoblot of whole cell lysates probed with α-RcsF, RcsF/OmpA band quantified relative to the WT
Details: partners not purified

percent decrease of RcsF/OmpA complex relative to WT: 50%
B1: RcsF(A55V), OM version (natural protein, UniProt P69411 16-134, looked up)
chain: CSMLSRSPVEPVQSTAPQPKAEPAKPKAPRATPVRIYTNVEELVGKPFRDLGEVSGDSCQASNQDSPPSIPTARKRMQINASKMKANAVLLHSCEVTSGTPGCYRQAVCIGSALNITAK
modifications: lipidated N-terminal cysteine (residue 16)
notes: RcsF, sensory outer membrane lipoprotein; mature RcsF = residues 16-134 (NTD 16-48, CTD 49-134); also called GOF[OM] variant; source: expressed from the low copy number vector pZS21 in a ΔrcsF strain; in cells
